This passage reports percent dimer results from article PMC2783235.

In experiment [1] the target is A281C (single-Cys mutant of FT-HT-Xa) (S. cerevisiae) (UniProt D6VTK4). Nature of the experiment: cross-linking.
For experiment [2] the target is unchanged. Nature of the experiment: cross-linking. This is another data set of the same source.
The target is the same in experiment [3]. Nature of the experiment: SDS-PAGE and western blot of membranes.
Experiment [4] has the same target. The experiment is described as follows: cross-linking. This is another data set of the same source.
The target of experiment [5] is A285C (single-Cys mutant of FT-HT-Xa) (S. cerevisiae) (UniProt D6VTK4). Nature of the experiment: cross-linking.
The target is the same in experiment [6]. The experiment is described as follows: cross-linking. The source holds these as a separate data set.
The target is the same in experiment [7]. Nature of the experiment: SDS-PAGE and western blot of membranes. In general terms: In western blotting, separated proteins are transferred to a membrane and probed.
The target is the same in experiment [8]. Nature of the experiment: cross-linking. This is another data set of the same source.
Experiment [9] deals with L284C (single-Cys mutant of FT-HT-Xa) (S. cerevisiae) (UniProt D6VTK4). Nature of the experiment: cross-linking.
Experiment [10] shares this target. Nature of the experiment: cross-linking. The source holds these as a separate data set.
For experiment [11] the target is unchanged. The experiment is described as follows: SDS-PAGE and western blot of membranes.
Experiment [12] has the same target. Nature of the experiment: cross-linking. The source holds these as a separate data set.
For experiment [13], the target named is L287C (single-Cys mutant of FT-HT-Xa) (S. cerevisiae) (UniProt D6VTK4). Nature of the experiment: cross-linking.
Experiment [14] shares this target. The experiment is described as follows: cross-linking. This is another data set of the same source.
For experiment [15] the target is unchanged. The experiment is described as follows: SDS-PAGE and western blot of membranes.
Experiment [16] shares this target. The experiment is described as follows: cross-linking. This is another data set of the same source.
Experiment [17] has as its target S288C (single-Cys mutant of FT-HT-Xa) (S. cerevisiae) (UniProt D6VTK4). Nature of the experiment: cross-linking.
The target is the same in experiment [18]. Nature of the experiment: cross-linking. This is another data set of the same source.
Experiment [19] shares this target. The experiment is described as follows: SDS-PAGE and western blot of membranes.
For experiment [20] the target is unchanged. Nature of the experiment: cross-linking. The source holds these as a separate data set.
In experiment [21] the target is V280C (single-Cys mutant of FT-HT-Xa) (S. cerevisiae) (UniProt D6VTK4). The experiment is described as follows: cross-linking.
The target is the same in experiment [22]. Nature of the experiment: cross-linking. The source holds these as a separate data set.
Experiment [23] shares this target. The experiment is described as follows: SDS-PAGE and western blot of membranes.
Experiment [24] has the same target. The experiment is described as follows: cross-linking. The source holds these as a separate data set.
The target in experiment [25] is V286C (single-Cys mutant of FT-HT-Xa) (S. cerevisiae) (UniProt D6VTK4). The experiment is described as follows: cross-linking.
Experiment [26] has the same target. Nature of the experiment: cross-linking. This is another data set of the same source.
The target is the same in experiment [27]. Nature of the experiment: SDS-PAGE and western blot of membranes.
Experiment [28] shares this target. Nature of the experiment: cross-linking. The source holds these as a separate data set.
Experiment [29] addresses L283C (single-Cys mutant of FT-HT-Xa) (S. cerevisiae) (UniProt D6VTK4). Nature of the experiment: cross-linking.
Experiment [30] shares this target. The experiment is described as follows: cross-linking. This is another data set of the same source.
Experiment [31] shares this target. The experiment is described as follows: SDS-PAGE and western blot of membranes.
The target is the same in experiment [32]. Nature of the experiment: cross-linking. This is another data set of the same source.
Experiment [33] deals with T282C (single-Cys mutant of FT-HT-Xa) (S. cerevisiae) (UniProt D6VTK4). The experiment is described as follows: cross-linking.
Experiment [34] has the same target. Nature of the experiment: cross-linking. The source holds these as a separate data set.
For experiment [35] the target is unchanged. The experiment is described as follows: SDS-PAGE and western blot of membranes.
For experiment [36] the target is unchanged. The experiment is described as follows: cross-linking. This is another data set of the same source.

As to “A281C (single-Cys mutant of FT-HT-Xa) (from UniProt D6VTK4 1-431) (receptor)”, the percent dimer in experiment [1] was determined as 14.3%; in [2], 11.3%; in experiment [3] it was 16.8%; in experiment [4], 11.9%.

“A285C (single-Cys mutant of FT-HT-Xa) (from UniProt D6VTK4 1-431) (receptor)”: the percent dimer amounted to 16.5% in experiment [5], 17.7% in experiment [6], 16.5% in experiment [7] and 53.5% in [8].

In the case of “L284C (single-Cys mutant of FT-HT-Xa) (from UniProt D6VTK4 1-431) (receptor)”, the percent dimer came to 17.7% in experiment [9], 15.3% in experiment [10], 15.2% in [11] and 12% in experiment [12].

Consider “L287C (single-Cys mutant of FT-HT-Xa) (from UniProt D6VTK4 1-431) (receptor)”, for which the percent dimer came out at 11.3% in experiment [13], 16% in [14], 16% in experiment [15] and 14.3% in experiment [16].

For “S288C (single-Cys mutant of FT-HT-Xa) (from UniProt D6VTK4 1-431) (receptor)”, the percent dimer in experiment [17] stood at 11.5%; in [18] it was 12.6%; in [19] it was 14.7%; in experiment [20], 14.7%.

For the substance “V280C (single-Cys mutant of FT-HT-Xa) (from UniProt D6VTK4 1-431) (receptor)”, the percent dimer in experiment [21] is 16.3%; in experiment [22], 12.4%; in experiment [23], 15.3%; in [24] it was 14.7%.

For “V286C (single-Cys mutant of FT-HT-Xa) (from UniProt D6VTK4 1-431) (receptor)”, the percent dimer in experiment [25] was found to be 13.2%; in [26] it was 15.9%; in experiment [27], 15.6%; in experiment [28], 17%.

Consider “L283C (single-Cys mutant of FT-HT-Xa) (from UniProt D6VTK4 1-431) (receptor)”, for which the percent dimer in experiment [29] was found to be 13.3%; in experiment [30], 10.7%; in experiment [31], 16.6%; in experiment [32], 15.7%.

With “T282C (single-Cys mutant of FT-HT-Xa) (from UniProt D6VTK4 1-431) (receptor)”, the percent dimer in [33] came out at 12%; in experiment [34], 11.7%; in experiment [35], 11.7%; in experiment [36], 15.4%.
